Results published in paper PMC7979924, “Lin28, a major translation reprogramming factor, gains access to YB-1-packaged mRNA through its cold-shock domain”.

What was measured:
[1] = target: T1, Lin28-CSD (Homo sapiens, UniProt Q9H9Z2 32-136); experiment: NMR (1H-15N HSQC); 298 K; EMSA: 20 mM Tris pH 7.6, 40 mM NaCl, 0.5 mM DTT, room temperature, 30 min; NMR: 50 mM potassium phosphate pH 7.0, 50 uM 15N-protein, 298 K (C10) or 303 K (C20); conditions: protein: recombinant; tags: His6
T1 sequence: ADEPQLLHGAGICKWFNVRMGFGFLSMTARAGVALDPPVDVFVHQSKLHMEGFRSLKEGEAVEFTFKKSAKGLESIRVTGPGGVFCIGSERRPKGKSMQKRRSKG

[2] = target: YB-1-CSD (Homo sapiens, UniProt P67809 1-180); experiment: NMR (1H-15N HSQC); 298 K; spectra stated as already published (ref 7); EMSA: 20 mM Tris pH 7.6, 40 mM NaCl, 0.5 mM DTT, room temperature, 30 min; NMR: 50 mM potassium phosphate pH 7.0, 50 uM 15N-protein, 298 K (C10) or 303 K (C20); conditions: protein: recombinant
YB-1-CSD, sequence (P67809 1-180): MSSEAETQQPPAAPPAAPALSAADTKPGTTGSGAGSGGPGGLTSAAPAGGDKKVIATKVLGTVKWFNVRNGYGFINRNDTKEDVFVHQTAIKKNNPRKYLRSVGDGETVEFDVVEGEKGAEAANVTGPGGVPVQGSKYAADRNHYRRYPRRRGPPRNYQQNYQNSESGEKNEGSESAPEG

CCCCCCCCCC (ssDNA) [poly(C) DNA C10]: binds [1]; binds [2].
